Our source for the Km, kcat and kcat/Km values is paper PMC8834124, “Enzymatic Preparation of Gentiooligosaccharides by a Thermophilic and Thermostable β-Glucosidase at a High Substrate Concentration” (Foods, 2022).

Test in all cases: purified protein
What all share (assay type): biochemical, Thermotoga sp. KOL6

In data set [1] the test system is O=[N+]([O-])c1ccc(O[C@@H]2O[C@H](CO)[C@@H](O)[C@H](O)[C@H]2O)cc1.
The subject of data set [2] is OC[C@H]1O[C@@H](OC[C@H]2OC(O)[C@H](O)[C@@H](O)[C@@H]2O)[C@H](O)[C@@H](O)[C@@H]1O.
In data set [3] the test system is OC[C@H]1O[C@@H](O[C@H]2C(O)O[C@H](CO)[C@@H](O)[C@@H]2O)[C@H](O)[C@@H](O)[C@@H]1O.
In data set [4] the test system is OC[C@H]1O[C@@H](O[C@H]2[C@H](O)[C@@H](CO)OC(O)[C@@H]2O)[C@H](O)[C@@H](O)[C@@H]1O.

For the substance “β-glucosidase TsBgl1 (Thermotoga sp. KOL6)”, the Km (as a rule, the concentration of substrate that gives half-maximal velocity) was determined as 240 µM in data set [1], 3680 µM in data set [2], 3950 µM in data set [3] and 2170 µM in data set [4]. For the same substance, the kcat – broadly, the number of substrate molecules converted per active site and unit of time at saturation – worked out at 124 s⁻¹ in data set [1], 240 s⁻¹ in data set [2], 218 s⁻¹ in data set [3] and 295 s⁻¹ in data set [4]. For the same substance, the kcat/Km – broadly, the second-order rate constant that governs catalysis at low substrate concentration – in data set [1] was 509000 M⁻¹ s⁻¹; in data set [2] it was 65200 M⁻¹ s⁻¹; in data set [3], 55300 M⁻¹ s⁻¹; in data set [4], 136000 M⁻¹ s⁻¹.
